Results reported in the DeepSol protein solubility set.

Experiment: soluble on expression in E. coli; label from the status in PepcDB or PDB records

Sequence | soluble on expression in E. coli
MSLVAVRSAHLNPDQQFELETWIASLTQEGKTAAKLTAVYRDCEQLLAGNPQGPLLLWRGREMIEILITLSMDRPTLVAALLFPIATSGVLDNESLEEGYGREVVKLIHGVEEMAAIGQLNVTMHGSEASAQVDNVRRMLLAMVDDFRCVVIKLAERICNLREVKNEPDEVRRVAAKECANIYAPLANRLGIGQLKWEIEDYAFRYQQPDTYKQIAKQLSERRIVREQYIRDFVSDLRAEMKQSGINAEVSGRPKHIYSIWRKMQKKSLAFDELFDVRAVRIIADKLQDCYAALGIVHTKYKHLPNEFDDYVANPKPNGYQSIHTVILGPEGKTIEIQIRTKQMHEESELGVAAHWKYKEGSSAARSGYDEKITWLRKLLDWQEEMSDSGEMLDELRSQVFDDRVYAFTPKGDVVDLPMGATPLDFAYHIHSEVGHRCIGAKVAGRIVPFTHKLQMGDQVEIITAKEPNPSRDWLNPSLGFVHSGRARAKINAWFRKQSREKNLEAGREILEIELAKIGANLKHAEAYALKRFNVNSVDEMYVGIGSGDLRINQIVNHINALVNKPTAEEEDKLALEKLQENKTLTPNRPHKDAVVVEGVDNLMTHLARCCQPIPGDEIRGYITQGRGISVHRSDCEQLEELSLHAPERIIDTVWGSGFVGSYLLTVRVEAMERSGLLKDITTLLANEKVKVASMKSRSDYKRQIIIMDFDLEVNNVEALARVSKRIEQIKDVMLVKRLGEGHHHHHH | not soluble
MSLVDDPLIVVNSEKVDKEYAELLMDKYYSKRTLEINSDNEIVVTENIIYNVPALDEFEINDGKGNLLVEFTKSGETVTYKNFEYEEELESDDEGDEVTFMGKTYKLIEYDEDEKIVLGNKVEDTETTEEFSYDAFTFKIIGMDSTGQILVSVYEGSDRIENVKMYPDDTYFVSGSKISIYYDEYMESGDTPYFFFEIYDSLEIEDGETISGYSNIDTDLDGKRINLEYESPKSLSQNFELLNYKVELTDVSDEDLTVFFTVTQNLNYEFDMDEGTKYFGNNIFAVKIENDEDDDSDDESYLYKNNKKYSEIVDYQGSVQLVDQDELLSASSDLILIGGPVSNKVTESIQNSLSVEVTNDYPGEGKGIIQTITNPNNDESTILVLAGSDRDGTKACVLALNQGLYSGSGNLVVKLTGDDSVSVEGHHHHHH | not soluble
MSLVEIVNRPYAKAFEAFATARPEVLCLSADLTSSCEVDGFRDRHPEQFLTLGMAEQNMLSFAGGLAMQGFRPFIHTFSVFLYRRPYDQLINSIAYSNRKVRLMGFLPGITTPGGITHQAIEDIAVLRAVPNMTILETGDATEVETVLEVADSIDGPVYVRILRGEVPRLFSTPFEFNKLRTLSEGDDILVVSSGVCTEEALRATGPLAARGVGIHHLHASTLKPFDKDGLLRAARGKKGIVTLENHTIIGGLGSLVSEILAEEGLGIRLKRLGLNDTFAHGASKPYLMKKYGLDAGALVSAIEELVGKNLAIGEEELVEVRLDHVHSAQKAEALEGHHHHHH | not soluble
MSLVHQLLAQMENGYMKIIKENLVGIYLHGSYAFGTYCHSVSDLDVLIVVYEKLTIDEKKQLLDYTINILDKWAPKKGIEFHVLQLKDTINLSYPIPFDLHFSPIHRSRYLTNKNKYIEDMMGYDEDLVAHLMITKLYGKVLVGKPIDSVFGWIDQKKYFESIVADVKEAKKEIVQQPMYVILNMCRVMAFKQENKILSKRAGGEWGLVHFPTNHHSLIQLALKEYRGETVLLEQYNDSELNDFADIMLSLLFKEGHHHHHH | not soluble
MSLVIFIMKKRYICILPYSLSYGGVFIDCKEVIANYWNFRSSTYKNGINGFDEEERAVWKQIFENSLASGKRLKVLDVGTGTGFLALLFAEMGHEVSGIDLSEGMLEKARHNADNMGLEISLFHGDAENLPFEDCSFDLVVNKYLLWTLQEPASAVREWKRVLKPGGMIFAIDGNWFDPRPDRYIKRMLYGLAERFAKKNQYNLIFKKSYGPIRNSLPLYEKISPKNISFLFSETGLMNTEISPLLEVQKFQRNRHSFSRRIFENNSIFLISGQKNEGHHHHHH | not soluble
MSLVSVIILASGNSQRMGQNKLFLKYQGKTFLEHTLTLVNQLDVLERILVVSPENQPAFPLPKNIQLILNHQWQEGQSSSIRLGTEQARGAGYLYLPSDQPLLTPKMLQLVLDKCQRNKIVVPLQKDGCPSSPVLFGNQFRQELLTLTGEKGGRMIYERFPEAVQMLRIATPGRLKDIDTPEEYQKLIQETNSLEHHHHHH | not soluble
MSLVTLADANPAQLAPFAGGAFEVAPLDVADEAALTVFLTRQDIVVSACPYFLNKTIARVAVATGTHYFDLTEDVETTAFIKALGETADVALVPQCGLAPGFICILGADMAARFERVKSVKMRVGALPLYPTNALSYNVTWSVDGLINEYCNPCEIVFEGRPTLVPALEGLEHVMIDGVSYEAFNTSGGLGTLTETLDGRVSDLSYKTLRYPGHAEIMKLLLRGLELADDRETLRRILNRAAPFTRKDVVVVFVEGHHHHHH | not soluble
MSLVTLRSLAQQLKVHVSTVSRVLNGTDDDARNAAAPETVERIRELAQQLNYRPNPHAIGLRTQKTRTVSVLVPQLSDLVVATIYEGIDAAAADSRYLTFVANTGDAPPRQRQLGEMALDRRVEGLIFADARRDDTRFLDEIARRGVPMVLVSRHLGTHCAVTCDDVAGGRMAAEHLLALGHRDIAVLAGEQYASTGCDRSAGFIAYCREQGVDIPAKWILHGPFDTRAGRLAGEKLFRSARKPSAVFAVNDFLAIGLMGAVRDRGLRAGHDVAIVGFNDTPLAAELPISLTTIRSPMHAMGYRSMELLLERIKGGRPASERLAPQLMVRASTCPREGIITITTDPNSSSVDKLAAALEHHHHHH | soluble
MSLVVGTDAHKYSHTFVATDEVGRQLGEKTVKATTAGHATAIMWAREQFGLELIWGIEDCRNMSARLERDLLAAGQQVVRVPTKLMAQTRKSARSRGKSDPIDALAVARAVLRETDLPLATHDETSRELKLLTDRRDVLVAQRTSAINRLRWLVHELDPERAPAARSLDAAKHQQALRTWLDTQPGLVAELARAELTDIIRLTGEINTLAQRISARVHQVAPALLEIPGCAELTAAKIVGEAAGVTRFKSEAAFACHAAVAPIPVWSGNTAGQMRLSRSGNRQLNAALHRIALTQIRMTDSRGQAYYQRLQDAGKTKRAALRCLKRRLARTVFQALRTVHQPSSEHTQPAAACHRSYCSSHLGEPPRLTDMTQKTRIQPLPPKRAGLLIRALYRIAKRRFGEVPEPFTVTAHHRRLLIANVVHEALLQRASRKLPPSVRELAVFWTARSIGCSWCVDFGAMLQRLDGLDVDRLTDIDNYATSSKFSDDERAAIAYAEAMTADPHSVTDEQVADLRARFGEAGVIELTYQIGVENMRARMNSALGITEQGFNSGDACRVPWAAPDVPSAESREGHHHHHH | not soluble
MSLYDPAEKYFNCTDIQRAFFEAGIKLGAIFHQYTGIPVNSENASMAEEFIERSTMIQPFVENVRISINNVKRSSGTYSYSSLNEKMLHAEVLINYNGKKVLGVLNYDEGLDYPVMYAKEVLEGHHHHHH | soluble
MSLYEPADGILETHVTWEDVEKDLQQSLGTRATFGENKRATNISDLKGFMSRIACLEPDWQNIEEGKELPSKFALKISSQLALVALSKIMNFEEGAGFSEEKLKKFSSLTKECHNREVDAYKVLMKFNHPDIPYTKGYMIIDFVPNIQTVEMYKSISADTIIPIIRGVATFSALGERLSKEDQHFVMGPTYLEMIFEDFFNDVELKKKFDTLRTTFEETENQEKVEKLITVFEHYKSLVKKYTNISDILGVKLVLNHGDLSQPNVLFSLDPQNKLKLEAIIDWQCVSRMPPGLDTARLLLGCLSGQERRERGTELLKVYHETYTSVFGEELFTFQELQELFNLFAPMMAMMLLPVMPSSIQSAIIPEEDKVSALKEVKTKMIAMMEDILEIHDNNLNHFSDFMKI | not soluble
MSLYKTADGREIFIVDAHTHFWDGSPENQRNIHGKQFVDCFYAYHSALSPPEEKWEKSRFEKYSEDDIYRDLFVDGPDDMAIIQTTVLGDFYKTGFGCIERSTRMAARNPGRFIVNGAFDPRDGEKALEYIHYMKETHDITGVKLYTAEWHGDSRGWKLTDPAAYKCFELCDKLGIRNMHVHKGPTIIPLSKDSFSVGDVDDAATDFQGLNWIVEHCGLPRLDDFCWIAVQETNVYGGLAVALPFIHTRPRYFAEVIAELLFWLGPDKILFGSDYAIWTPKWLVDRFWNFQIPEDIAAERGVQLTDEIKEKILGLNAARLYGIDVDAKRRDFADHPVLIAAEGHHHHHH | soluble
